tested on: HEK293T; assay: median enrichment of reporter reads in eGFP-reduced (low/intermediate) vs eGFP-high sorted cells (eGFP-extension fusion abundance) (ratio); higher = stronger loss of eGFP-fusion protein abundance (more destabilising extension)
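Also: lentiviral eGFP-IRES-mCherry reporter pool sorted by FACS 96 h post-transduction, gated on mCherry-high cells, Illumina read counts normalized per million, median across four biological replicates.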

| Substance | median enrichment |
| --- | --- |
| QCHLLSPTTP [PPY] | 0.404 |
| QCITECGHQPRAAW [FOXJ2] | 0.515 |
| QCL [ADGRG6] | 0.557 |
| QCLCRIKCLLFYMHILKEKQRPEPRRG [RIOX2] | 4.27 |
| QCLPERVVRWCHVGEQVSFRTQRRPPFCK [ACTR3B] | 5.17 |
| QCLWPSILISLMRILLALLSLVGICQAQCFNLKLILCFRCQSRYQQPFDPTTALYILVEDFHPCAWKRCSWYIVKK [TCEAL3] | 10.4 |
| QCMSLV [CCDC6] | 0.689 |
| QCPN [LRRC3B] | 0.337 |
| QCR [CCDC73] | 0.362 |
| QCVSRCQ [SPG21] | 0.894 |
| QCYLVSF [TRMT10A] | 4.82 |
| QDFMHSSERVTVTTVLSPISHKLLFVSKRMLLLLHCFPFAGTCWCLLLNWPALLAVWHCSLGRLLCSLYLHYRLVNLPTSSL [DCUN1D4] | 6.12 |
| QDFRSICKCLFFIIALYIVCYLTR [DDX5] | 10.2 |
| QDGWGWR [SCPEP1] | 0.778 |
| QDLSIF [KCNJ13] | 0.364 |
| QDPVVLFESLRP [HAVCR1] | 0.393 |
| QDSQLHRRLLPGLLLGRPPACPPCVSTPPARLPAGPSTPCVHTTSNLIGADVFIFLEFLFML [DDA1] | 7.88 |
| QDTERRTYSRNGLVQSQSPPL [CFAP157] | 0.332 |
| QDTVNSSSKILACKHPLKFKRGKIKYNEF [ANKRD30BL] | 1.66 |
| QEATDRVSLVIRSQRFTI [ITM2A] | 15.6 |
| QEDFKVNFPSLFLN [CSN2] | 0.654 |
| QEGPGGPAVLSPAPLGGVW [GALNT2] | 0.738 |
| QEGQDLYSRLVQQRLMD [TAP2] | 0.376 |
| QEHPHDIAFGGAPVACRIACGLCNLLRFKTDGHMCQWGSLSPGPKKQGTKFKTLASSQPLKPWPPEFPFLSLSFYFFYFYFYF [JAK3] | 7.54 |

| Substance | median enrichment |
| --- | --- |
| QEITRWHQPRALARYGEGTWGPHLPPGLFREDPTVTPPSAVGAWRWAAGLNPPWGAPFLLPICVYIHK [MEF2B] | 5.36 |
| QEKAIWDLITLNRHANTVCVRALCIQ [PCDH9] | 6.25 |
| QELARQLPLLHPQ [TECTB] | 0.3 |
| QELSERCSIPFPHGKAK [ASXL3] | 0.227 |
| QELTQQKRTASIPHAFTHQIILKNSDPQVF [TOR3A] | 13.3 |
| QELVGSLRTPVLLTPSF [TSNAXIP1] | 2.24 |
| QEMWSLRCLKSTTMPGIEEDYYLKQWALVFGASDMPSILPSWN [G6PC] | 10.6 |
| QENKNCRK [MRPL13] | 0.366 |
| QEPHALKKTWEDMVAWNCHPRIPC [ZIM3] | 3.53 |
| QESKSTLPSHHHGPTGYPEQLHTLLEVSRSLPA [ADAMTSL1] | 2.98 |
| QESSPPAHQGQDTWLGADAGPDVAEDSRAGRARGGGGGGGGGRRRRSRPLPTTSRRRRGARAEEPGTGDS [C6orf223] | 0.3 |
| QESSSRGTEDWGQEESGTQPSCPLTPGRPSPHPRVPQSYPLSACVARPDKHLQMAAAPTWDLPRRLEQKGLSLGWCFSSRVLG [TMEM141] | 3.62 |
| QEWKSGSSRYSFMLCSCEQSTKFE [LMLN] | 7.78 |
| QFCPPVTPVSGTRNPQHALMLCF [DNMT1] | 4.79 |
| QFDNKAEGLSSNMVAFF [ACSM4] | 0.317 |
| QFKELKIHMHEP [WDR41] | 1.3 |
| QFLC [BEST3] | 0.953 |
| QFLGLFEYSIPMGIYFLSCH [HHIP] | 13.7 |
| QFLQDTVPLPFFDQLSLVASSLHKM [FCF1] | 14.2 |
| QFPTSELGNCTHSNPACSAS [MAS1L] | 0.296 |
| QGAGPWMVPVCLALGMAVEGTWQKQPHVLPCPRPGVDKTRGVFWSPPAELEASHCNFSAQGLLNRCERPVPRVSL [SLC6A13] | 14.4 |
| QGDL [DPYD] | 0.394 |
| QGGDF [KIF16B] | 0.225 |
| QGHACAPMGFLFSFFFFLVGGVGGLD [PRKACA] | 5.49 |

| Substance | median enrichment |
| --- | --- |
| QGIQGTAL [CXorf26] | 0.941 |
| QGLEGQEVGVRSPYSACCPGCAAQLDSASQHLPPRSFLLFIPIFTPKTSLSLFTPPKPLSHAGPLKPQLPTILREHPLPSLPF [GSTM2] | 5.62 |
| QGLQKNWPWGTKAFFSGLLPRP [KANK4] | 4.85 |
| QGNPRSNQGGGS [POLA1] | 0.576 |
| QGNWALPHVFLLPPRDSNDMYSHLGHACLPNTIWSWTTFDTNQSYWTRPLEDLKYTSHAVVYLGCDSLSNAALGKDESDLQGE [APOBEC2] | 6.1 |
| QGPAPRTDSTRKPNDVPARRPRRAAFPLVLEKLEHPVTALFAMGTGTLFYTMLPPSPP [CARM1] | 3.47 |
| QGPGLRREALSQRLPHPSPLAFNSVASCSPAAEPPRIRLHVTLKLTNFHGPH [FYN] | 20.4 |
| QGPPNLIAGHSQPSESESRFLLSLPSSPLETQLLSQVRQWAGSCFISLSLSIPLCLVSLPLVSAWQPPPPTYHPSPITQVNVT [PGLYRP4] | 3.73 |
| QGQVICSLSAFTPFNSLTPCQTYLSGTSSPDTFQRREKK [CREBZF] | 4.04 |
| QGSYGIPPRSARA [CDKN2A] | 5.31 |
| QGTCPGSS [UBE2T] | 0.477 |
| QGVSLSLSFCIICLAECVYRLPKFTKKL [VNN2] | 10.5 |
| QHEKDWGGQGGQPAEMRGAGGHSPFSGLDPLRSSPTSCTDNAL [MAP3K9] | 0 |
| QHGETPSLLKIQKKLARHGGGRL [FBLIM1] | 0.0978 |
| QHGGFGS [AKAIN1] | 0.844 |
| QHLPEETPLPTLPERGSLRTGWRRWGPSRAPGALPGMSRPTHPKAGAAAPCCPSPGLGNDDPPKSPSAPQTQGLRPPAPGIRE [FXYD7] | 0.759 |
| QHLQEEEEKEGTPDWI [GPR158] | 1.29 |
| QHLVQQ [IFNA13] | 0.328 |
| QHQ [ANKRD6] | 0.522 |
| QHTQNSLTRTISFCKGF [KRR1] | 1.62 |
| QHWGRLPHPASGKPVAGHRVVPPVPS [SCLY] | 11 |
| QHYS [C4BPB] | 0.456 |
| QICIIQAYLVKQTHIMGLGNIYLSKFAITDLGFFPFFEGKFNYIALLFFPLRDSLLGKCFLRTKI [CHMP5] | 4.31 |
| QIKLAVRNAKSC [RBMX] | 6.47 |

| Substance | median enrichment |
| --- | --- |
| QIL [TMEM244] | 0.849 |
| QIQGHK [RILPL2] | 0.367 |
| QIRI [TADA1] | 0.507 |
| QISTNKSKTNSRIPDCPIPI [PTCHD3] | 2.49 |
| QKCGKAFTKSSYCVQHLKFNTEQMQYKCNDSGRTFIILEGL [ZNF736] | 4.28 |
| QKGRAQQCK [IRX2] | 1.1 |
| QKGSGPGIHVGGRGRGGRREGRGEIHTVDTLTSWPKSLPQDLPDLHGQASYGGVSISFFLFLFPGLRASWGPRFTNSPTPLKL [AQP1] | 6.27 |
| QKILPSLVVGTDRIHLTQTSSFTDFNYLFLKT [WSB1] | 2.9 |
| QKKPL [NFATC2] | 0.453 |
| QKMTQKLEPTKLLTPC [ADGRL3] | 1.01 |
| QKPYEYCEYGKAI [ZNF569] | 0.563 |
| QKQPQGSINNICQLNLLSSNAKKGEWRVQD [PAPOLA] | 2.06 |
| QKRMMMTFIIHKQWEVQQCLGADLRRRMIFLSLLTT [MROH9] | 20.2 |
| QKVPLANCLEAQHNPKALFR [HIST1H1E] | 2.26 |
| QLDHDLVQ [TRAT1] | 0.266 |
| QLFLKMAIVYEICISVSLYKF [NUP133] | 11.5 |
| QLFTLFFYIYLYIYIKIGS [CBX3] | 10.2 |
| QLGAHIKCFILHTWTLKPGCACILKQQSSHSFRQMFSVSEENMFSEEKTFRQMFSEEKKGKLGVGRC [PRAME] | 9.08 |
| QLGPAWKASAPCTHTDRNFRDCGVETGAQALQRVALKL [RAB36] | 7.77 |
| QLICYVNLSFAFLFD [DGKB] | 13.9 |
| QLLVPPSLLVIRFPRLTP [PITRM1] | 9.11 |
| QLPMPPQNWLLRVN [TSC22D1] | 4.17 |
| QLRILKRSHGKTS [NBN] | 7.35 |
| QLRTLPFFPLSSLPLPFLPIYPFPSSKSTQGEENKMTTQDLVAKILHSKSSFV [FGF12] | 4.18 |

| Substance | median enrichment |
| --- | --- |
| QLSLPPQPGSPALESSVLHAEDAPSLDWSGLLPNDIAQRLWSRHPAEWGPRGCQLGALPLAATLWSGRVLHHQEDPILSSVSC [INAFM1] | 4.8 |
| QLVKTMGVVLTQPPIPQGASGQSFWHCSRIPPSWCVWRVGKAGRDINLEENT [ARHGEF25] | 6.94 |
| QLYHYSRSSSQHHLLATWDV [GCG] | 16.8 |
| QLYSTKIFKDWFLF [DIS3] | 11.1 |
| QLYVGLSLEYVWSPGLSRLEQQSLLLAYHRD [ZFYVE21] | 9.76 |
| QMTKP [RBFOX1] | 0.233 |
| QNASVRIKD [BORA] | 0.475 |
| QNILCTALVISDLD [MALSU1] | 7.03 |
| QNIQVINELCYGIIALLYAG [CC2D2B] | 8.94 |
| QNIYRVTKNKQSKKKTVY [LRRC4C] | 31.9 |
| QNLREPVV [CEP89] | 0.464 |
| QNNVSYFSIKDHLKLLIPNIN [DMAC2L] | 12.2 |
| QNRIEQNRIE [PCSK5] | 0.813 |
| QNTFLL [CFAP97] | 0.56 |
| QPDKRNKLFFLMDCSKRSLKIPWLSTYKTYYLNKEEYYVNIHIKNFGGFEKNELYIYKSTLKTNFNCLKQLF [NLGN1] | 24 |
| QPETGGSPPARSGASSCQSSWCYPLNPSAATATVGLRVSEQERKDKLFVVPTMLRFGNPGVFPGGLRKQSL [TNFAIP3] | 4.84 |
| QPGT [ZNF445] | 1.04 |
| QPHGAVLLMLEAS [ESPL1] | 6.52 |
| QPKTRGSDLC [EPC2] | 0.415 |
| QPPAILPHPPPSPPVSTWSALPHPPPTELGCITFFHLKERSRF [MROH5] | 4.47 |
| QPPARQRGHRRASPECRPWVAGPGSLVPPGGHRHRLAWQAGPLCHPLLGACRPFPSTPQVFQALLPQFPKWNHLTSAAPDLPG [SECTM1] | 4.68 |
| QPSSCKAIAKQGGSLQSMPGDYVSQGGPMGMSMAQPSYTPPQMTPHPTQLRHGPPMHSYLPSHPHHPAMMMHGGPPTHPGMTM [MEIS2] | 3.91 |
| QPTGDPDLILNRRRLRDSRRHRSCPQWTPMNPSQPGPLTKTTRTSWELWDSLDSAVKDD [LILRB5] | 1.48 |

From the supplement of paper PMC11502859
